# B1: MBP-IBD (domain or fragment, human, UniProt O75475-1 347-429, looked up)
# chain: SMDSRLQRIHAEIKNSLKIDNLDVNRCIEALDELASLQVTMQQAQKHTEMITTLKKIRRFKVSQVIMEKSTMLYNKFKNMFLV
# notes: the introduction gives amino acids 347 to 429 for the IBD; GenBank NM_033222; The limits are those printed for the minimal IBD in the introduction; also called IBD-MBP; source: E. coli BL21 (plasmid pMBP-IBD), purified
# B2: MBP-Δ325 (domain or fragment, human, UniProt O75475-1 325-530, looked up)
# chain: EQQNKDEGKKPEVKKVEKKRETSMDSRLQRIHAEIKNSLKIDNLDVNRCIEALDELASLQVTMQQAQKHTEMITTLKKIRRFKVSQVIMEKSTMLYNKFKNMFLVGEGDSVITQVLNKSLAEQRQHEEANKTKDQGKKGPNKKLEKEQTGSKTLNGGSDAQDGNQPQHNGESNEDSKDNHEASTKKKPSSEERETEISLKDSTLDN
# notes: GenBank NM_033222; also called Δ325-MBP; Δ325 fragment; source: E. coli BL21 (plasmid pMBP-Δ325), purified
# B3: C-terminal His6-tagged HIV-1 integrase, wild type (enzyme, HIV-1 (NL4-3), UniProt P12497 1148-1435, looked up)
# chain: FLDGIDKAQEEHEKYHSNWRAMASDFNLPPVVAKEIVASCDKCQLKGEAMHGQVDCSPGIWQLDCTHLEGKVILVAVHVASGYIEAEVIPAETGQETAYFLLKLAGRWPVKTVHTDNGSNFTSTTVKAACWWAGIKQEFGIPYNPQSQGVIESMNKELKKIIGQVRDQAEHLKTAVQMAVFIHNFKRKGGIGGYSAGERIVDIIATDIQTKELQKQITKIQNFRVYYRDSRDPVWKGPAKLLWKGEGAVVIQDNSDIKVVPRRKAKIIRDYGKQMAGDDCVASRQDED
# notes: HIV-1 NL4-3 integrase (IN), the cut product of the Gag-Pol polyprotein; GenBank U26942, base pairs 3608 through 4471; the results call it IN^s (IN from a synthetic gene); also called IN-WT; WT IN^s; not shown: His6, C-terminal, kept
# Columns and labels:
# [1] = target: C-terminal His6-tagged HIV-1 integrase A128T (HIV-1 (NL4-3)); assay: AlphaScreen or HTRF; 300 nM C-terminal His6-tagged IN with increasing MBP-Δ325 (30 to 300 nM); Ni-chelate acceptor beads, anti-MBP donor beads; 25 mM Tris/HCl pH 7.3, 150 mM NaCl, 1 mM MgCl2, 0.01% Tween-20, 0.1% BSA; room temperature
# [2] = target: C-terminal His6-tagged HIV-1 integrase E170G (HIV-1 (NL4-3)); assay: as above
# [3] = target: C-terminal His6-tagged HIV-1 integrase A128T/E170G (HIV-1 (NL4-3)); assay: as above
# [4] = target: B3; assay: pull-down; 6 μg C-terminal His6-tagged IN on Ni-NTA-agarose; 6 μg LEDGF/p75, MBP-IBD or MBP-Δ325 added; 25 mM Tris-HCl pH 7.4, 0.1% Nonidet P-40, 20 mM imidazole, 150 mM NaCl, 1 mM MgCl2, BSA; 4 h at 4 °C; SDS-PAGE, Coomassie Blue; conditions: both partners purified
# [5] = target: B3; assay: AlphaScreen or HTRF; 30 nM C-terminal His6-tagged IN with increasing MBP-Δ325 (30 to 300 nM); Ni-chelate acceptor beads, anti-MBP donor beads; 25 mM Tris/HCl pH 7.3, 150 mM NaCl, 1 mM MgCl2, 0.01% Tween-20, 0.1% BSA; room temperature; conditions: both partners purified
# Nontagged LEDGF/p75 = target: T1, Nontagged LEDGF/p75 (human, UniProt O75475-1 1-530); assay: pull-down; 6 μg C-terminal His6-tagged IN on Ni-NTA-agarose; 6 μg LEDGF/p75, MBP-IBD or MBP-Δ325 added; 25 mM Tris-HCl pH 7.4, 0.1% Nonidet P-40, 20 mM imidazole, 150 mM NaCl, 1 mM MgCl2, BSA; 4 h at 4 °C; SDS-PAGE, Coomassie Blue; conditions: both partners purified
# T1 construct: LEDGF/p75, human, 530 amino acids, GenBank NM_033222; also called recombinant LEDGF/p75; full-length LEDGF/p75; source: E. coli BL21(DE3) (plasmid pCPnat75), purified
molecule,measurement,setting,value
MBP-Δ325 (from UniProt O75475-1 325-530) (domain or fragment),fold reduction of the AlphaScreen signal compared with IN-WT (300 nM IN),[1],2 fold
same,fold reduction of the AlphaScreen signal compared with IN-WT (300 nM IN),[2],3 fold
same,"fold reduction of the AlphaScreen signal compared with IN-WT (300 nM IN, 300 nM MBP-Δ325)",[3],8 fold
B1,binding result,[4],binds
B2,binding result,[5],binds
B3,binding result,Nontagged LEDGF/p75,binds

# From PMC1839165, “Virus Evolution Reveals an Exclusive Role for LEDGF/p75 in Chromosomal Tethering of HIV” (PLoS Pathogens, 2007)
